Test system: Escherichia coli TOP10
Experiment: shrunken log2 fold change of peptide-encoding DNA abundance (4.5 h post-induction vs induction); higher = less antimicrobial activity (less host growth inhibition)
Details: time post-induction: 4.5 h; library: site-saturation at positions 5, 18, 19, 20
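Further: peptides expressed intracellularly from a pBAD plasmid library in pooled LB shake-flask culture, induced with 0.3% L-arabinose, DNA abundance read by NGS, three biological replicates, DESeq2 with apeglm shrinkage.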

Row | Sequence | shrunken log2 fold change
1 | RRIRFRPPRLPRPRPRPCAVPRP | -0.46
2 | RRIRWRPPRLPRPRPRPYILPRP | -0.849
3 | RRIRIRPPRLPRPRPRPFRTPRP | -0.241
4 | RRIRSRPPRLPRPRPRPKKNPRP | 0.267
5 | RRIRARPPRLPRPRPRPNHCPRP | 0.956
6 | RRIRIRPPRLPRPRPRPGAVPRP | 0.28
7 | RRIRIRPPRLPRPRPRPCHNPRP | -0.293
8 | RRIRKRPPRLPRPRPRPENLPRP | 3.46
9 | RRIRSRPPRLPRPRPRPLHIPRP | -0.0437
10 | RRIRNRPPRLPRPRPRPLYAPRP | -0.0693
11 | RRIRGRPPRLPRPRPRPTYGPRP | 0.372
12 | RRIRLRPPRLPRPRPRPWCMPRP | -0.408
13 | RRIRYRPPRLPRPRPRPTPDPRP | -0.145
14 | RRIRQRPPRLPRPRPRPKWSPRP | 0.0364
15 | RRIRQRPPRLPRPRPRPVMDPRP | -0.39
16 | RRIRLRPPRLPRPRPRPIVHPRP | 0.67
17 | RRIRARPPRLPRPRPRPFGMPRP | 0.0196
18 | RRIRCRPPRLPRPRPRPIYSPRP | -0.59
19 | RRIRTRPPRLPRPRPRPEIYPRP | -0.329
20 | RRIRARPPRLPRPRPRPPWFPRP | 0.36
21 | RRIRVRPPRLPRPRPRPFSRPRP | -0.0787
22 | RRIRIRPPRLPRPRPRPTFDPRP | -0.188
23 | RRIRPRPPRLPRPRPRPAMHPRP | 0.367
24 | RRIRMRPPRLPRPRPRPPFGPRP | 0.789
25 | RRIRIRPPRLPRPRPRPNKAPRP | 0.0028

Row | Sequence | shrunken log2 fold change
26 | RRIRVRPPRLPRPRPRPMANPRP | 0.146
27 | RRIRYRPPRLPRPRPRPVKGPRP | -0.015
28 | RRIRCRPPRLPRPRPRPHQGPRP | -0.0624
29 | RRIRIRPPRLPRPRPRPYYGPRP | -2.94
30 | RRIRSRPPRLPRPRPRPLSHPRP | -0.462
31 | RRIRDRPPRLPRPRPRPPCGPRP | 0.411
32 | RRIRWRPPRLPRPRPRPCSDPRP | 0.273
33 | RRIRHRPPRLPRPRPRPLKNPRP | -0.273
34 | RRIRCRPPRLPRPRPRPAKFPRP | 0.154
35 | RRIRDRPPRLPRPRPRPLRQPRP | 0.565
36 | RRIRYRPPRLPRPRPRPKFNPRP | -1.1
37 | RRIRGRPPRLPRPRPRPKDCPRP | 0.427
38 | RRIRDRPPRLPRPRPRPDVRPRP | 0.0212
39 | RRIRMRPPRLPRPRPRPGGMPRP | 0.789
40 | RRIRSRPPRLPRPRPRPVRSPRP | 0.255
41 | RRIRHRPPRLPRPRPRPRKSPRP | 0.119
42 | RRIRPRPPRLPRPRPRPDELPRP | -0.0607
43 | RRIRWRPPRLPRPRPRPMGAPRP | 0.501
44 | RRIRERPPRLPRPRPRPRAVPRP | 0.264
45 | RRIRTRPPRLPRPRPRPKVIPRP | -0.503
46 | RRIRKRPPRLPRPRPRPDEGPRP | -0.01
47 | RRIRMRPPRLPRPRPRPVWAPRP | 0.466
48 | RRIRPRPPRLPRPRPRPGDWPRP | 0.432
49 | RRIRHRPPRLPRPRPRPLMNPRP | -0.642
50 | RRIRKRPPRLPRPRPRPTMVPRP | 0.27

Reference: the supplement of paper PMC9112550, “Optimization of the antimicrobial peptide Bac7 by deep mutational scanning” (BMC Biology, 2022)
